The source of these data is article PMC4228979, “Conserved cis-regulatory modules in promoters of genes encoding wheat high-molecular-weight glutenin subunits”.

The chains are these.
T1: His-SPA (Storage Protein Activator, bZIP) (UniProt A0A9R1IS55 1-409)
T1 sequence: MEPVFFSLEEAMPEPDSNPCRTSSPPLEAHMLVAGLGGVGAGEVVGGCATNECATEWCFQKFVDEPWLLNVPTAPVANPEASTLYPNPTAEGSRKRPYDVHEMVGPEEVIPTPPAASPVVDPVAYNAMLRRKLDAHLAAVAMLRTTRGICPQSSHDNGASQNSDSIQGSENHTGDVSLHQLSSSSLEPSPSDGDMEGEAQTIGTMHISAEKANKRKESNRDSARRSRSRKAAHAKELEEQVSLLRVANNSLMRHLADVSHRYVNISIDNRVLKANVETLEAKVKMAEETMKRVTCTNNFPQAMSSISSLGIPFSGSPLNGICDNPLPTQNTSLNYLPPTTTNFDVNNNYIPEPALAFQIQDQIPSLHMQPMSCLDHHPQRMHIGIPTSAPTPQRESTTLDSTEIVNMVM

B1: mutated G-box (dsDNA)
DNA 1: GCCCATTCTCTGGCTTTAGCAGACC
DNA 2: GGTCTGCTAAAGCCAGAGAATGGGC
B2: glm1 (dsDNA)
DNA 1: ATAGATGTTTTTATTAATTGGATAG
DNA 2: CTATCCAATTAATAAAAACATCTAT
B3: GLM2 (-626) (dsDNA)
DNA 1: ATAGATATTGTGAGTCAGCATGGAT
DNA 2: ATCCATGCTGACTCACAATATCTAT

The target in this data set is T1, His-SPA (Storage Protein Activator, …). Put plainly: EMSA; 10 mM Tris pH 7.5, 100 mM KCl, 2 mM DTT, 2 mM EDTA, 10% glycerol, 0.05% nonyl phenoxypolyethoxylethanol, 0.5 mM PMSF, 100 ng/uL poly(dI.dC), 250 ng/uL fish sperm DNA; 20 fmol probe, 560 ng-4 ug protein in 20 uL; 30 min, room temperature; gel at 4 C. The following applies: protein: recombinant; tags: His tag (pDEST17); chain copies: 2; label: 3' biotin on each strand; blunt. A general note: In EMSA bound probe runs differently from free probe, usually more slowly.
With B1, the binding result was “no binding”.

With B2, the binding result was “no binding”.

As to B3, the binding result is on record as “binds”.
